Test results reported in publication PMC3493562.
Values joined by “and” are separate entries in the source; they are usually repeats but may differ in a detail not shown here. Equal values may be shown once. Read-outs that look alike come from different tables or passages of the source. Blank lines part the entries; values can stand above or below the substance they belong to.

Experiments:
[1] = target: amyloid β peptide (Aβ) of the TBS-soluble fraction of human Alzheimer's disease brain (human (endogenous in brain)); assay: SDS-PAGE and immunoblot
[2] = target: amyloid β peptide (Aβ) of the TBS-soluble fraction of human Alzheimer's disease brain (human (endogenous in brain)); assay: SEC
[3] = target: split-luciferase tagged Aβ; assay: split reporter
[4] = target: split-luciferase tagged Aβ; assay: SEC + split reporter
[5] = target: split-luciferase tagged Aβ; assay: split reporter; remark: listed apart in the source
[6] = target: split-luciferase tagged Aβ; assay: split reporter; remark: listed apart in the source
split reporter = split reporter (BiFC, NanoBiT)

stoichiometry N [1]: 2 | stoichiometry N [2]: 2 and 3
Substance: amyloid β peptide (Aβ) of the TBS-soluble fraction of human Alzheimer's disease brain
percent of LMW Aβ eluting in the HMW Aβ fraction after incubation without apoE (SEC): 0.5 ± 0.7 without apoE

luminescence (%) after incubation with fraction 8 of APOEε3/ε3 AD brains [3]: 168% | luminescence (%) after incubation with fraction 8 of APOEε4/ε4 AD brains [3]: 193% | luminescence of cell lysate (%) with apoA-II co-expressed [3]: 100% | luminescence of cell lysate (%) with apoE2 co-expressed [3]: 89.9% | luminescence of cell lysate (%) with apoE3 co-expressed [3]: 96.4% | luminescence of cell lysate (%) with apoE4 co-expressed [3]: 92.5% | luminescence of conditioned medium (% of control) with apoA-I co-expressed [3]: 132% | luminescence of conditioned medium (% of control) with apoA-II co-expressed [3]: 89.3% | luminescence of conditioned medium (% of control) with apoE3 co-expressed [3]: 279% | luminescence of conditioned medium (%) with apoA-II co-expressed [3]: 101% | luminescence of conditioned medium (%) with apoE3 co-expressed [3]: 229% | luminescence of conditioned medium (%) with apoE4 R61T co-expressed [3]: 228% | luminescence of conditioned medium (%) with apoE4 co-expressed [3]: 261% | stoichiometry N [4]: 2 | luminescence of conditioned medium (% of control) with apoA-II co-expressed [5]: 91.7% | luminescence of conditioned medium (% of control) with apoE3 NTF co-expressed [5]: 113% | luminescence of conditioned medium (% of control) with apoE3 co-expressed [5]: 274% | luminescence of conditioned medium (% of control) with apoE 192-242 co-expressed [5]: 142% | luminescence of conditioned medium (% of control) with apoE 192-272 co-expressed [5]: 185% | luminescence of conditioned medium (% of control) with apoE 231-299 co-expressed [5]: 223% | luminescence of conditioned medium (% of control) with apoE 243-299 co-expressed [5]: 235% | luminescence of conditioned medium (% of control) with apoE CTF co-expressed [5]: 239% | luminescence of conditioned medium (% of control) with apoE3 NTF co-expressed [6]: 114% | luminescence of conditioned medium (% of control) with apoE3 co-expressed [6]: 218% | luminescence of conditioned medium (% of control) with apoE CTF co-expressed [6]: 206%
Substance: split-luciferase tagged Aβ (peptide)

Substance: split-luciferase tagged Aβ
luminescence (%) after incubation with SEC fraction 6 of AD brain (split reporter): 141.8% in AD fraction 6 | luminescence (%) after incubation with SEC fraction 6 of control brain (split reporter): 99.8% in control fraction 6 | luminescence (%) after incubation with SEC fraction 7 of AD brain (split reporter): 198.4% in AD fraction 7 | luminescence (%) after incubation with SEC fraction 7 of control brain (split reporter): 163.2% in control fraction 7 | luminescence (%) after incubation with SEC fraction 8 of AD brain (split reporter): 256.4% in AD fraction 8 | luminescence (%) after incubation with SEC fraction 8 of control brain (split reporter): 230.8% in control fraction 8 | luminescence (%) after incubation with SEC fraction 9 of AD brain (split reporter): 207.6% in AD fraction 9 | luminescence (%) after incubation with SEC fraction 9 of control brain (split reporter): 202.6% in control fraction 9
